B1: BsEst (Bacillus subtilis subsp. subtilis str. 168; DEL410-418/INS409GG) (protein)
chain: MTHQIVTTQYGKVKGTTENGVHKWKGIPYAKPPVGQWRFKAPEPPEVWEDVLDATAYGSICPQPSDLLSLSYTELPRQSEDCLYVNVFAPDTPSKNLPVMVWIHGGAFYLGAGSEPLYDGSKLAAQGEVIVVTLNYRLGPFGFLHLSSFNEAYSDNLGLLDQAAALKWVRENISAFGGDPDNVTVFGESAGGMSIAALLAMPAAKGLFQKAIMESGASRTMTKEQAASTSAAFLQVLGINEGQLDKLHTVSAEDLLKAADQLRIAEKENIFQLFFQPALDPKTLPEEPEKAIAEGAASGIPLLIGTTRDEGYLFFTPDSDVHSQETLDAALEYLLGKPLAEKVADLYPRSLESQIHMMTDLLFWRPAVAYASAQSHYAPVWMYRFDWHPKKPPYNKAFHALELPFVFGNGGAEITDEVKQLSHTIQSAWITFAKTGNPSTEAVNWPAYHEETRETLILDSEITIENDPESEKRQKLFPSKGE
notes: catalytic triad S189-E310-H399; L410-K418 barrier
B2: ChryBHETase (Chryseobacterium sp. PET-29; DEL66-76/INS65GG) (protein)
chain: MTTQQHKKIHTFHTSFGTIPALKGNGVIRAKSIRYARSQRFKKPEPLPYPEHDEIPDKTPVCPQNGGTDVEQFEPDESPQFLTITRPEHFNENEKLPVIVWIHGGSYEIGCGDLPTSDPSVWVKEQHIIVVSVSYRLGLFGFLGGSEERPANLGLYDMIAALQWIKQYIRDFGGDPENITLFGQSSGGDAIAHLMISEETENLFRHVIIHSAPLGFRINRQKMSHEFFLKTDILKDEPDALKMVAGYRTFLPSFRKYGLKTSMPFCTQYGHPPLCQEEETMPNWKQNAKKYDVLIGSNQDETAFYVKTSQTGIYTYLPQRILNKIVRKTTASIYEKPAKAFAENLAAGGGNVYQFVIRSTLKSNNIGASHCVDLPLLFENKEAWQSAELLKDVPWEYIQENGKKLRALWAEFARSGSISEDSERPEILKLKKVKN
notes: catalytic triad S194-E310-H379; V66-K76 barrier
B3: BsEst (Bacillus subtilis subsp. subtilis str. 168) (protein)
chain: MTHQIVTTQYGKVKGTTENGVHKWKGIPYAKPPVGQWRFKAPEPPEVWEDVLDATAYGSICPQPSDLLSLSYTELPRQSEDCLYVNVFAPDTPSKNLPVMVWIHGGAFYLGAGSEPLYDGSKLAAQGEVIVVTLNYRLGPFGFLHLSSFNEAYSDNLGLLDQAAALKWVRENISAFGGDPDNVTVFGESAGGMSIAALLAMPAAKGLFQKAIMESGASRTMTKEQAASTSAAFLQVLGINEGQLDKLHTVSAEDLLKAADQLRIAEKENIFQLFFQPALDPKTLPEEPEKAIAEGAASGIPLLIGTTRDEGYLFFTPDSDVHSQETLDAALEYLLGKPLAEKVADLYPRSLESQIHMMTDLLFWRPAVAYASAQSHYAPVWMYRFDWHPKKPPYNKAFHALELPFVFGNLDGLERMAKAEITDEVKQLSHTIQSAWITFAKTGNPSTEAVNWPAYHEETRETLILDSEITIENDPESEKRQKLFPSKGE
notes: as for B1
B4: ChryBHETase (Chryseobacterium sp. PET-29) (protein)
chain: MTTQQHKKIHTFHTSFGTIPALKGNGVIRAKSIRYARSQRFKKPEPLPYPEHDEIPDKTPVCPQNVSPLLDRLIQKTDVEQFEPDESPQFLTITRPEHFNENEKLPVIVWIHGGSYEIGCGDLPTSDPSVWVKEQHIIVVSVSYRLGLFGFLGGSEERPANLGLYDMIAALQWIKQYIRDFGGDPENITLFGQSSGGDAIAHLMISEETENLFRHVIIHSAPLGFRINRQKMSHEFFLKTDILKDEPDALKMVAGYRTFLPSFRKYGLKTSMPFCTQYGHPPLCQEEETMPNWKQNAKKYDVLIGSNQDETAFYVKTSQTGIYTYLPQRILNKIVRKTTASIYEKPAKAFAENLAAGGGNVYQFVIRSTLKSNNIGASHCVDLPLLFENKEAWQSAELLKDVPWEYIQENGKKLRALWAEFARSGSISEDSERPEILKLKKVKN
notes: as for B2

Columns and labels:
[1] = substrate: O=C(OCCO)c1ccc(C(=O)OCCO)cc1; experiment: purified protein; type: biochemical, Bacillus subtilis; conditions: 50 mM potassium phosphate (Na2HPO4-NaH2PO4), pH 7.5, 30 °C, BHET 0.8-15 mM
[2] = substrate: O=C(OCCO)c1ccc(C(=O)OCCO)cc1; experiment: purified protein; type: biochemical, Chryseobacterium sp. PET-29; conditions: 50 mM potassium phosphate (Na2HPO4-NaH2PO4), pH 7.5, 30 °C, BHET 0.8-15 mM

Row | Protein | Km [1] [µM] | kcat [1] [s⁻¹] | kcat/Km [1] [M⁻¹ s⁻¹] | Km [2] [µM] | kcat [2] [s⁻¹] | kcat/Km [2] [M⁻¹ s⁻¹]
1 | B1 | 80 ± 30 | 102 ± 5.18 | 1.35e+06 ± 334000 | – | – | –
2 | B2 | – | – | – | 120 ± 30 | 12.9 ± 1.24 | 109000 ± 12900
3 | B3 | 100 ± 20 | 37.7 ± 1.98 | 382000 ± 84500 | – | – | –
4 | B4 | – | – | – | 90 ± 20 | 6.85 ± 0.53 | 77400 ± 11000

From publication PMC10344914, “Discovery and mechanism-guided engineering of BHET hydrolases for improved PET recycling and upcycling” (Nature Communications, 2023)
